Measurements taken from patent US20230340087A1 (published 2023).

Target: T1, Clostridium difficile toxin A (TcdA) (Clostridium difficile, UniProt P16154 1-2710)
T1 construct: also called TxA; rTcdA
Assay: binding kinetics, method not stated

T1 sequence (P16154 whole entry): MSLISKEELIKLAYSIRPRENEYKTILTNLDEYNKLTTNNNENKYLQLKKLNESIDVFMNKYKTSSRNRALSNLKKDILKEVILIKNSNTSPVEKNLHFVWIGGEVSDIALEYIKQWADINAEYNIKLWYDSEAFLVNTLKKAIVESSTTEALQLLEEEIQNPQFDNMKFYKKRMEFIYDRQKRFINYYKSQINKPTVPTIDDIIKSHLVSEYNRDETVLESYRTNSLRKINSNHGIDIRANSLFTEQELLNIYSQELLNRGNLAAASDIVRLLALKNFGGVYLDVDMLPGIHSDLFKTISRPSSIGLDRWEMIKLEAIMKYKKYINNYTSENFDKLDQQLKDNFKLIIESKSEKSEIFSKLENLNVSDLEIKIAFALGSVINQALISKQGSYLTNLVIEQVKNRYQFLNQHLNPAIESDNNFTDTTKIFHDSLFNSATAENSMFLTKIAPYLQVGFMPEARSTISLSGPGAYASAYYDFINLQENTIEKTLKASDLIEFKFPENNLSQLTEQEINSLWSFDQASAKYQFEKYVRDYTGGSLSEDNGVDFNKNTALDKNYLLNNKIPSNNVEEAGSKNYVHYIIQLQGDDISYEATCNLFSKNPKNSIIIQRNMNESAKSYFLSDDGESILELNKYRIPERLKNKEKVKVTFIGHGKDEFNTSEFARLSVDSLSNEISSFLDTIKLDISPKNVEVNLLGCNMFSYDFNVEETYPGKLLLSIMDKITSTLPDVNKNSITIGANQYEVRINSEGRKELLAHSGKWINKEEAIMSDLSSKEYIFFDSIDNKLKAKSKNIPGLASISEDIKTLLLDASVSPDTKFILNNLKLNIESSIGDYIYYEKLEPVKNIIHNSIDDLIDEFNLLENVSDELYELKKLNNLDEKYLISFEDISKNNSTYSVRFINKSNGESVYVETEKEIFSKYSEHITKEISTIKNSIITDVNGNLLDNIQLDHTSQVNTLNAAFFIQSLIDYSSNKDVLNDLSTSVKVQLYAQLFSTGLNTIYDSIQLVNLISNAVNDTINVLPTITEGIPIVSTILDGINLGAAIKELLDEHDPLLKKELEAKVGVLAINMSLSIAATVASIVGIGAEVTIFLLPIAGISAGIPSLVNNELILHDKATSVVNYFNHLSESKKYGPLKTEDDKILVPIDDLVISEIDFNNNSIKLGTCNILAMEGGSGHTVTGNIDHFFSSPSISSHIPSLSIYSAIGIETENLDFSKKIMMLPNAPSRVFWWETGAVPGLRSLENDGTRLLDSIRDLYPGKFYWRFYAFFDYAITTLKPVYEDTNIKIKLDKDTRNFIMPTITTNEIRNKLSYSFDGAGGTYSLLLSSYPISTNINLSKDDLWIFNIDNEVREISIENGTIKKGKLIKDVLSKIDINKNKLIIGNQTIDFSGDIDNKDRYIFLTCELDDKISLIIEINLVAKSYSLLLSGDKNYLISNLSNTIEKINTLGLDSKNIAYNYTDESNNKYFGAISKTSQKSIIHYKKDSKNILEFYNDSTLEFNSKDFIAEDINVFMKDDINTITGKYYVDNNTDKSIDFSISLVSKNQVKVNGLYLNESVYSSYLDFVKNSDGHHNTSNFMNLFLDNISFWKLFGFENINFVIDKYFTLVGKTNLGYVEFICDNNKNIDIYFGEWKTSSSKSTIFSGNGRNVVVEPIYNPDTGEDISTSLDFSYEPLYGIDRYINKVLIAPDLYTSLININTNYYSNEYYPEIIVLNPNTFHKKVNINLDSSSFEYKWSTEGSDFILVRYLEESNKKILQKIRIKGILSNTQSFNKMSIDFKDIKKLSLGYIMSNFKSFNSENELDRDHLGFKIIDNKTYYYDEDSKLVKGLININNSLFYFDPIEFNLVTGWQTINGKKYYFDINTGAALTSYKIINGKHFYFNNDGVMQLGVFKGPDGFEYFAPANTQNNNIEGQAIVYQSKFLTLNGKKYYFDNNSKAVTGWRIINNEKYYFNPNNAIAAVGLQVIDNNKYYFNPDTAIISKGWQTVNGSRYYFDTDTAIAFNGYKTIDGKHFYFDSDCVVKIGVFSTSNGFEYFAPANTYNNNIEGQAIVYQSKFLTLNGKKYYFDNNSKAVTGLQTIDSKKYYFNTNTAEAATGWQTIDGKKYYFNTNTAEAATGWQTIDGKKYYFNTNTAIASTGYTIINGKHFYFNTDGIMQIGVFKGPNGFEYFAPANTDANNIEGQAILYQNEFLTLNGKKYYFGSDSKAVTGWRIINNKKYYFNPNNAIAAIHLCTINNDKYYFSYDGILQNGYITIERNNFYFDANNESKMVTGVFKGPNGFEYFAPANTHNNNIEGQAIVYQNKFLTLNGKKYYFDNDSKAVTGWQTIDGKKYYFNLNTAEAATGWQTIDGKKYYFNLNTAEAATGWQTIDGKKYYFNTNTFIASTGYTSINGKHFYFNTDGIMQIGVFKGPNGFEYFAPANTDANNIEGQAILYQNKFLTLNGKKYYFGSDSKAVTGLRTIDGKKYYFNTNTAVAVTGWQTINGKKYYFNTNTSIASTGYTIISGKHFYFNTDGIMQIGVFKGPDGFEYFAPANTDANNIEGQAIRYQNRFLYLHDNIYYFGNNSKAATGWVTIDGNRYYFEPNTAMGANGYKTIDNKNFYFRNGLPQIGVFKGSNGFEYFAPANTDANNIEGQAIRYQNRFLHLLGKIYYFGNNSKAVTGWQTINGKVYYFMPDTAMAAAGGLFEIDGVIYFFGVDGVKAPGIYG

B1: ABAB binding agent (AH3/5D/AA6/E3), tetra-specific, tetrameric VHH binding agent (designed binder)
chain: QVQLVETGGGLVQPGGSLRLSCAASGFTLDYSSIGWFRQAPGKEREGVSCISSSGDSTKYADSVKGRFTTSRDNAKNTVYLQMNSLKPDDTAVYYCAAFRATMCGVFPLSPYGKDDWGKGTLVTVSSGGGGSGGGGSGGGGSQVQLVESGGGLVQPGGSLRLSCEASGFTLDYYGIGWFRQPPGKEREAVSYISASARTILYADSVKGRFTISRDNAKNAVYLQMNSLKREDTAVYYCARRRFSASSVNRWLADDYDVWGRGTQVAVSSGGGSGGGSGGGSGGGSQLQLVETGGGLVQPGGSLRLSCAASGFTFSDYVMTWVRQAPGKGPEWIATINTDGSTMRDDSTKGRFTISRDNAKNTLYLQMTSLKPEDTALYYCARGRVISASAIRGAVRGPGTQVTVSSGGGGSGGGGSGGGGSQVQLVESGGGLVQTGGSLRLSCASSGSIAGFETVTWSRQAPGKSLQWVASMTKTNNEIYSDSVKGRFIISRDNAKNTVYLQMNSLKPEDTGVYFCKGPELRGQGIQVTVSS
notes: also called r-ABAB; recombinant ABAB
Kd: 0.002 nM | koff: 1.21e-06 s⁻¹ | kon: 696000 M⁻¹ s⁻¹

B2: AA6 VHH peptide monomer (VHH)
VHH: QLQLVETGGGLVQPGGSLRLSCAASGFTFSDYVMTWVRQAPGKGPEWIATINTDGSTMRDDSTKGRFTISRDNAKNTLYLQMTSLKPEDTALYYCARGRVISASAIRGAVRGPGTQVTVSS
Kd: 19.7 nM | koff: 0.000692 s⁻¹ | kon: 35200 M⁻¹ s⁻¹
